± gives the standard deviation of the averaged measurements.
System: ATP
Test: switch fluorescence ratio, 500 uM ATP over buffer (Cy3 cluster intensity, sum of 5 cycles each) (fold (ratio)); higher = stronger signal-on switching upon ATP binding; sequences stand for … in TCGTCGGCAGCGTCAGATGTGTATAAGAGACAGTTTTTTTTTTTTTTTTTTTTTTTTT…TC
Details: aptamer strand: ATP DNA aptamer (quencher-CACCTGGGGGAGTATTGCGGAGGAAGG + anchor), 100 nM annealed; ATP concentration: 500 uM
How it was run: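 Switching-strand clusters labelled with Cy3 on a modified Illumina MiSeq flow-cell were annealed to 100 nM quencher-labelled ATP aptamer, imaged in selection buffer, and re-imaged after 15 min with 500 uM ATP at 22 °C. This was done over five cycles with NaOH stripping and re-annealing in between. The fluorescence ratio is summed target-cycle over summed buffer-cycle Cy3 intensity per cluster, averaged per switch-domain sequence, excluding clusters outside 100-1000 RFU.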
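Also: ATP exposure 15 min at 22 °C before imaging.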

Sequence	switch fluorescence ratio
GTTATATTGA	0.999 ± 0.026
GTTATATTGT	0.9943 ± 0.0096
GTTATCATTA	1.02 ± 0.03
GTTATCGAGG	1.02 ± 0.011
GTTATCTCTT	0.996 ± 0.033
GTTATGTCTG	1.03 ± 0.065
GTTATGTTTG	1.01 ± 0.045
GTTATTAGTG	0.993 ± 0.016
GTTATTCGGT	0.991 ± 0.023
GTTATTGCGT	0.982 ± 0.05
GTTATTGGGT	0.988 ± 0.046
GTTATTTAGT	0.967 ± 0.05
GTTATTTGGA	0.971 ± 0.069
GTTATTTGGT	0.992 ± 0.04
GTTATTTTTT	0.987 ± 0.028
GTTCAAATGA	0.987 ± 0.017
GTTCAAGGAA	0.9937 ± 0.0036
GTTCCGGGGA	1.02 ± 0.016
GTTCCGGTCG	1.07 ± 0.098
GTTCCTGGGG	1.03 ± 0.019
GTTCCTTTTT	1.02 ± 0.064
GTTCGTGATA	1.05 ± 0.043
GTTCTAGATT	1.03 ± 0.067
GTTCTAGGAG	1 ± 0.019
GTTCTAGGTT	0.9961 ± 0.0044
GTTCTATGC	1 ± 0.079

Sequence	switch fluorescence ratio
GTTCTCAGAT	0.982 ± 0.013
GTTCTGGGCT	0.973 ± 0.016
GTTCTGGGGC	0.986 ± 0.028
GTTGAAACGT	1.06 ± 0.023
GTTGAAGG	0.9986 ± 0.0032
GTTGAATGGG	0.977 ± 0.011
GTTGAGAGGA	0.9636 ± 0.0018
GTTGAGAGTT	1.01 ± 0.015
GTTGAGGAGG	0.9891 ± 0.0086
GTTGATCCTT	0.9987 ± 0.0075
GTTGATCTGG	1.01 ± 0.011
GTTGATTAGC	0.981 ± 0.077
GTTGATTATG	0.995 ± 0.014
GTTGCAGCTG	0.962 ± 0.037
GTTGCAGTTA	0.9986 ± 0.0029
GTTGCATTAT	1.028 ± 0.0041
GTTGCCAAAG	0.9726 ± 0.0022
GTTGCGAATT	0.971 ± 0.038
GTTGCGCACA	1.024 ± 0.0097
GTTGCTGTTT	1 ± 0.048
GTTGGAAACA	0.945 ± 0.01
GTTGGAAGCA	1.1 ± 0.18
GTTGGAATGG	1.01 ± 0.014
GTTGGAGGGA	1.01 ± 0.032
GTTGGAGTGT	0.9511 ± 0.0068
GTTGGATAGG	1.01 ± 0.016

Sequence	switch fluorescence ratio
GTTGGATGGA	0.9966 ± 0.0062
GTTGGCAGGC	1.03 ± 0.028
GTTGGCATTT	1.05 ± 0.092
GTTGGCGGGA	1.02 ± 0.042
GTTGGGACTG	1 ± 0.055
GTTGGGAGCC	0.99 ± 0.01
GTTGGGATAA	1 ± 0.038
GTTGGGCCCA	1 ± 0.016
GTTGGGCCGT	0.987 ± 0.038
GTTGGGCTAT	0.9916 ± 0.0024
GTTGGGGGAC	1.09 ± 0.086
GTTGGGGGCA	0.968 ± 0.049
GTTGGGGTAT	1.06 ± 0.11
GTTGGGGTCA	0.988 ± 0.011
GTTGGGGTCG	0.998 ± 0.037
GTTGGGGTGA	1.05 ± 0.02
GTTGGGTATC	0.998 ± 0.023
GTTGGTCTAC	1.04 ± 0.018
GTTGGTGCGG	0.999 ± 0.034
GTTGGTGGCT	0.9581 ± 0.0026
GTTGGTGGGG	0.957 ± 0.035
GTTGTAATAG	1.09 ± 0.031
GTTGTACTGG	0.944 ± 0.03
GTTGTACTTG	0.988 ± 0.005
GTTGTAGGTG	1.057 ± 0.0014
GTTGTAGTCT	1.02 ± 0.023

Sequence	switch fluorescence ratio
GTTGTAGTTG	0.98387 ± 0.00037
GTTGTATCGG	0.991 ± 0.021
GTTGTCAGTA	0.9836 ± 0.005
GTTGTCATGC	1.02 ± 0.033
GTTGTCGCTT	0.9811 ± 0.0057
GTTGTCGTAT	0.974 ± 0.051
GTTGTCTCCA	0.985 ± 0.015
GTTGTGCGTA	0.994 ± 0.031
GTTGTGGCGG	0.97 ± 0.021
GTTGTGGGCG	0.977 ± 0.12
GTTGTGGTTC	0.96755 ± 0.00092
GTTGTGTATT	0.998 ± 0.022
GTTGTTAGGA	0.961 ± 0.02
GTTGTTATGT	1.01 ± 0.015
GTTGTTATTG	1.01 ± 0.021
GTTGTTGAAG	1.009 ± 0.0011
GTTGTTGCTA	0.99 ± 0.034
GTTGTTTGAT	0.997 ± 0.052
GTTGTTTGTA	0.971 ± 0.021
GTTGTTTGTT	0.978 ± 0.015
GTTGTTTTGA	0.994 ± 0.022
GTTTAAAACG	0.9961 ± 0.0073
GTTTAAAATG	1 ± 0.024
GTTTAAACGT	1.02 ± 0.021
GTTTAATATT	0.99 ± 0.026
GTTTAATGGG	0.999 ± 0.037

Sequence	switch fluorescence ratio
GTTTAATTTG	1 ± 0.025
GTTTACGTGG	1.01 ± 0.015
GTTTACTCTT	0.996 ± 0.025
GTTTAGAGCG	1.026 ± 0.01
GTTTAGGGTA	1.01 ± 0.051
GTTTATAGGT	0.9815 ± 0.0077
GTTTATATAT	1.03 ± 0.035
GTTTATCATT	0.982 ± 0.011
GTTTATCCGT	0.996 ± 0.055
GTTTATGTTA	1.017 ± 0.0018
GTTTCAAACG	0.971 ± 0.025
GTTTCAATGC	1.31 ± 0.1
GTTTCCAGGT	1.16 ± 0.017
GTTTCCATGG	0.973 ± 0.033
GTTTCGCCGT	1.046 ± 0.0054
GTTTCGGTTG	0.972 ± 0.05
GTTTCTGGTG	1.13 ± 0.064
GTTTCTTGGG	0.995 ± 0.056
GTTTCTTTAC	0.988 ± 0.058
GTTTCTTTGT	0.986 ± 0.049
GTTTGCAAGT	1.011 ± 0.0072
GTTTGCCCAA	0.987 ± 0.037
GTTTGCCCTT	1.06 ± 0.1
GTTTGCCTCT	0.995 ± 0.012
GTTTGCGCTT	1.01 ± 0.021
GTTTGCGGCA	1.01 ± 0.027

Sequence	switch fluorescence ratio
GTTTGGGAAA	0.988 ± 0.036
GTTTGGGCCG	1.07 ± 0.028
GTTTGGGTTG	0.989 ± 0.019
GTTTGGTAGT	0.979 ± 0.038
GTTTGTTAAT	1.007 ± 0.0044
GTTTGTTTAA	0.981 ± 0.017
GTTTTAAACA	1 ± 0.034
GTTTTAAAGG	0.984 ± 0.031
GTTTTAACAT	0.9895 ± 0.0073
GTTTTAAGGG	0.99 ± 0.016
GTTTTACGCG	1 ± 0.007
GTTTTAGAGG	1.01 ± 0.015
GTTTTAGCCA	0.97 ± 0.013
GTTTTAGGCT	0.973 ± 0.061
GTTTTAGTGT	0.98716 ± 0.00058
GTTTTAGTTT	0.987 ± 0.037
GTTTTATAGG	0.965 ± 0.021
GTTTTATGAG	0.959 ± 0.014
GTTTTATGGA	0.983 ± 0.034
GTTTTATTTT	1 ± 0.047
GTTTTCAAAG	0.973 ± 0.037
GTTTTCCCGT	1.03 ± 0.027
GTTTTCGCGA	1.06 ± 0.04
